According to patent publication US20230114801A1 (SYSTIMMUNE, published 2023):

Key:
Assay in all cases: BLI (Octet), binder on AHC sensor, 100 nM human antigen, 1:1 fit
human PD-L1 = target: T1, human PD-L1 (human, UniProt Q9NZQ7 19-238)
T1 construct: Soluble antigen in Octet; bought; also called human PD-L1 (Acro PD1-H5229)

human EGFR = target: T2, human EGFR (human, UniProt P00533 25-645, limits assumed)
T2 construct: Soluble antigen in Octet; construct not described

human 4-1BB = target: T3, human 4-1BB (human, UniProt Q07011 24-186, limits assumed)
T3 construct: Soluble antigen in Octet; construct not described

human CD3 = target: T4, human CD3 (human, UniProt P07766 23-126; P04234 22-105)
T4 construct: also called His-tagged human CD3; human CD3 (Acro CDD-H52W1)

B1: SI-75P3 (other)
chain 1: EIVLTQSPSTLSVSPGERATFSCRASQSIGTNIHWYQQKPGKPPRLLIKYASESISGIPDRFSGSGSGTEFTLTISSVQSEDFAVYYCQQNNNWPTTFGPGTKLTVLGGGGSGGGGSGGGGSGGGGSQVQLQQSGPGLVKPSETLSITCTVSGFSLTNYGVHWIRQAPGKGLEWLGVIWSGGNTDYNTPFTSRFTITKDNSKNQVYFKLRSVRADDTAIYYCARALTYYDYEFAYWGQGTLVTVSSGGGGSGGGGSEVQLVESGGGLVQPGGSLRLSCAASGFTISTNAMSWVRQAPGKGLEWIGVITGRDITYYASWAKGRFTISRDNSKNTLYLQMNSLRAEDTAVYYCARDGGSSAITSNNIWGQGTLVTVSSASTKGPSVFPLAPSSKSTSGGTAALGCLVKDYFPEPVTVSWNSGALTSGVHTFPAVLQSSGLYSLSSVVTVPSSSLGTQTYICNVNHKPSNTKVDKRVEPKSCDKTHTCPPCPAPEAAGGPSVFLFPPKPKDTLMISRTPEVTCVVVDVSHEDPEVKFNWYVDGVEVHNAKTKPREEQYNSTYRVVSVLTVLHQDWLNGKEYKCAVSNKALPAPIEKTISKAKGQPREPQVYTLPPSRDELTKNQVSLSCAVKGFYPSDIAVEWESNGQPENNYKTTPPVLDSDGSFFLVSKLTVDKSRWQQGNVFSCSVMHEALHNHYTQKSLSLSPGGGGGSGGGGSDVVMTQSPSSVSASVGDRVTITCQASQNIRTYLSWYQQKPGKAPKLLIYAAANLASGVPSRFSGSGSGTDFTLTISDLEPGDAATYYCQSTYLGTDYVGGAFGGGTKLTVLGGGGSGGGGSGGGGSGGGGSEVQLVESGGGLVQPGGSLRLSCTASGFTISSYHMQWVRQAPGKGLEYIGTISSGGNVYYASSARGRFTISRPSSKNTVDLQMNSLRAEDTAVYYCARDSGYSDPMWGQGTLVTVSS
chain 2: QSALTQPASVSGSPGQSITISCTGTSSDVGGYNFVSWYQQHPGKAPKLMIYDVSDRPSGVSDRFSGSKSGNTASLIISGLQADDEADYYCSSYGSSSTHVIFGGGTKVTVLGGGGSGGGGSGGGGSGGGGSQVQLQESGGGLVKPGGSLSLSCAASGFTFSSYWMSWVRQAPGKGLEWVANINRDGSASYYVDSVKGRFTISRDDAKNSLYLQMNSLRAEDTAVYYCARDRGVGYFDLWGRGTLVTVSSGGGGSGGGGSDVVMTQSPSTLSASVGDRVTINCQASESISSWLAWYQQKPGKAPKLLIYEASKLASGVPSRFSGSGSGTEFTLTISSLQPDDFATYYCQGYFYFISRTYVNSFGGGTKVEIKRTVAAPSVFIFPPSDEQLKSGTASVVCLLNNFYPREAKVQWKVDNALQSGNSQESVTEQDSKDSTYSLSSTLTLSKADYEKHKVYACEVTHQGLSSPVTKSFNRGECGGDKTHTCPPCPAPEAAGGPSVFLFPPKPKDTLMISRTPEVTCVVVDVSHEDPEVKFNWYVDGVEVHNAKTKPREEQYNSTYRVVSVLTVLHQDWLNGKEYKCAVSNKALPAPIEKTISKAKGQPREPQVYTLPPSRDELTKNQVSLWCLVKGFYPSDIAVEWESNGQPENNYKTTPPVLDSDGSFFLYSKLTVDKSRWQQGNVFSCSVMHEALHNRFTQKSLSLSPGGGGGSGGGGSDIQMTQSPSTLSASVGDRVTITCQASQSISSHLNWYQQKPGKAPKLLIYKASTLASGVPSRFSGSGSGTEFTLTISSLQPDDFATYYCQQGYSWGNVDNVFGGGTKVTVLGGGGSGGGGSGGGGSGGGGSEVQLLESGGGLVQPGGSLSLSCAASGFSFSSGYDMCWVRQAPGKGLEWIACIAAGSAGITYDANWAKGRFTISRDNSKNTLYLQMNSLRAEDTAVYYCARSAFSFDYAMDLWGQGTLVTVSS
notes: penta-miniGNC; D1 αEGFR, D2 αHER3, D3 αCD3 (Fab), D4 α4-1BB, D5 αPD-L1
Binder B1 has a Kd (human PD-L1) of 1 nM, a Kd (human EGFR) of 8.91 nM and a Kd (human 4-1BB) of 7.51 nM. The Kd (human CD3) was 17.4 nM.

B2: SI-75P9 (other)
chain 1: EIVLTQSPSTLSVSPGERATFSCRASQSIGTNIHWYQQKPGKPPRLLIKYASESISGIPDRFSGSGSGTEFTLTISSVQSEDFAVYYCQQNNNWPTTFGPGTKLTVLGGGGSGGGGSGGGGSGGGGSQVQLQQSGPGLVKPSETLSITCTVSGFSLTNYGVHWIRQAPGKGLEWLGVIWSGGNTDYNTPFTSRFTITKDNSKNQVYFKLRSVRADDTAIYYCARALTYYDYEFAYWGQGTLVTVSSGGGGSGGGGSQVQLQESGGGLVKPGGSLRLSCAASGFTFSSYWMSWVRQAPGKGLEWVANINRDGSASYYVDSVKGRFTISRDDAKNSLYLQMNSLRAEDTAVYYCARDRGVGYFDLWGRGTLVTVSSASTKGPSVFPLAPSSKSTSGGTAALGCLVKDYFPEPVTVSWNSGALTSGVHTFPAVLQSSGLYSLSSVVTVPSSSLGTQTYICNVNHKPSNTKVDKRVEPKSCDKTHTCPPCPAPEAAGGPSVFLFPPKPKDTLMISRTPEVTCVVVDVSHEDPEVKFNWYVDGVEVHNAKTKPREEQYNSTYRVVSVLTVLHQDWLNGKEYKCAVSNKALPAPIEKTISKAKGQPREPQVYTLPPSRDELTKNQVSLSCAVKGFYPSDIAVEWESNGQPENNYKTTPPVLDSDGSFFLVSKLTVDKSRWQQGNVFSCSVMHEALHNHYTQKSLSLSPGGGGGSGGGGSDVVMTQSPSSVSASVGDRVTITCQASQNIRTYLSWYQQKPGKAPKLLIYAAANLASGVPSRFSGSGSGTDFTLTISDLEPGDAATYYCQSTYLGTDYVGGAFGGGTKLTVLGGGGSGGGGSGGGGSGGGGSEVQLVESGGGLVQPGGSLRLSCTASGFTISSYHMQWVRQAPGKGLEYIGTISSGGNVYYASSARGRFTISRPSSKNTVDLQMNSLRAEDTAVYYCARDSGYSDPMWGQGTLVTVSS
chain 2: DVVMTQSPSTLSASVGDRVTINCQASESISSWLAWYQQKPGKAPKLLIYEASKLASGVPSRFSGSGSGTEFTLTISSLQPDDFATYYCQGYFYFISRTYVNSFGGGTKVEIKGGGGSGGGGSGGGGSGGGGSEVQLVESGGGLVQPGGSLRLSCAASGFTISTNAMSWVRQAPGKGLEWIGVITGRDITYYASWAKGRFTISRDNSKNTLYLQMNSLRAEDTAVYYCARDGGSSAITSNNIWGQGTLVTVSSGGGGSGGGGSQSALTQPASVSGSPGQSITISCTGTSSDVGGYNFVSWYQQHPGKAPKLMIYDVSDRPSGVSDRFSGSKSGNTASLIISGLQADDEADYYCSSYGSSSTHVIFGGGTKVTVLRTPKANPTVTLFPPSSEELQANKATLVCLISDFYPGAVTVAWKADGSPVKAGVETTKPSKQSNNKYAASSYLSLTPEQWKSHRSYSCQVTHEGSTVEKTVAPTECSGGDKTHTCPPCPAPEAAGGPSVFLFPPKPKDTLMISRTPEVTCVVVDVSHEDPEVKFNWYVDGVEVHNAKTKPREEQYNSTYRVVSVLTVLHQDWLNGKEYKCAVSNKALPAPIEKTISKAKGQPREPQVYTLPPSRDELTKNQVSLWCLVKGFYPSDIAVEWESNGQPENNYKTTPPVLDSDGSFFLYSKLTVDKSRWQQGNVFSCSVMHEALHNRFTQKSLSLSPGGGGGSGGGGSDIQMTQSPSTLSASVGDRVTITCQASQSISSHLNWYQQKPGKAPKLLIYKASTLASGVPSRFSGSGSGTEFTLTISSLQPDDFATYYCQQGYSWGNVDNVFGGGTKVTVLGGGGSGGGGSGGGGSGGGGSEVQLLESGGGLVQPGGSLSLSCAASGFSFSSGYDMCWVRQAPGKGLEWIACIAAGSAGITYDANWAKGRFTISRDNSKNTLYLQMNSLRAEDTAVYYCARSAFSFDYAMDLWGQGTLVTVSS
notes: penta-miniGNC; D1 αEGFR, D2 αCD3, D3 αHER3 (Fab), D4 α4-1BB, D5 αPD-L1
For B2, the Kd (human PD-L1) was 2.7 nM, the Kd (human EGFR) was 11.1 nM and the Kd (human 4-1BB) was 21.2 nM. It also gave a Kd (human CD3) of 20.1 nM.
